Values of other authors, collected in paper PMC4385930.

Key:
Bim BH3 (Homo sapiens) = Bim BH3 (Homo sapiens) (UniProt O43521)
Bax BH3 (Homo sapiens) = Bax BH3 (Homo sapiens) (UniProt Q07812)
Bak BH3 (Homo sapiens) = Bak BH3 (Homo sapiens) (UniProt Q16611)

F1L (from UniProt P24356)
Kd (Bim BH3 (Homo sapiens)): 200 nM
Kd (Bax BH3 (Homo sapiens)): 2000 nM
Kd (Bak BH3 (Homo sapiens)): 4300 nM
